± gives the uncertainty stated by the source.
B1: DnaJ homolog subfamily C member 2, residues 451 to 503; numbered along this chain, Q99543 (parent)
chain: SKNWSEDDLQLLIKAVNLFPAGTNSRWEVIANYMNIHSSSGVKRTAKDVIGKA

Variants of: B1
Assay: abundance fitness (aPCA) (normalised: wild type 0, dead -1); higher = more abundant; growth selection in yeast, the domain comes from the species named
Settings: Homo sapiens

| Variant | abundance fitness |
| --- | --- |
| A53H | -0.233 ± 0.25 |
| A53T | -0.254 ± 0.19 |
| A53Q | -0.081 ± 0.22 |
| A53Y | -0.629 ± 0.45 |
| A53P | -0.775 ± 0.46 |
| A53R | -0.498 ± 0.32 |
| A53L | -0.634 ± 0.24 |
| A53D | -0.08 ± 0.32 |
| A53S | -0.001 ± 0.14 |
| A53V | -0.035 ± 0.29 |
| A53C | -0.188 ± 0.25 |
| A53G | -0.112 ± 0.21 |
| D48L | -0.838 ± 0.085 |
| D48S | -0.212 ± 0.067 |
| D48P | -1.01 ± 0.12 |
| D48T | -0.563 ± 0.1 |
| D48K | -0.973 ± 0.16 |
| D48Y | -1.04 ± 0.19 |
| D48W | -0.845 ± 0.1 |
| D48H | -0.539 ± 0.1 |
| D48Q | -0.105 ± 0.1 |
| D48E | 0.042 ± 0.084 |
| D48M | -0.396 ± 0.095 |

| Variant | abundance fitness |
| --- | --- |
| D48G | -0.554 ± 0.067 |
| D48V | -0.759 ± 0.074 |
| D48F | -1.06 ± 0.18 |
| D48N | -0.623 ± 0.068 |
| D48R | -0.708 ± 0.066 |
| K52M | -0.247 ± 0.15 |
| K52E | -0.006 ± 0.12 |
| K52G | -0.006 ± 0.074 |
| K52D | -0.666 ± 0.11 |
| K52T | -0.197 ± 0.09 |
| K52S | -0.252 ± 0.073 |
| K52V | -0.181 ± 0.087 |
| K52A | -0.01 ± 0.09 |
| K52P | -0.077 ± 0.094 |
| K52W | -0.018 ± 0.12 |
| K52C | -0.033 ± 0.097 |
| K52R | -0.119 ± 0.076 |
| K52F | -0.329 ± 0.11 |
| K52L | -0.385 ± 0.073 |
| K52N | -0.358 ± 0.12 |
| K52I | -0.094 ± 0.11 |
| K52Q | -0.012 ± 0.12 |
| K52H | -0.126 ± 0.13 |

| Variant | abundance fitness |
| --- | --- |
| G51Y | -0.099 ± 0.12 |
| G51D | 0.063 ± 0.062 |
| G51H | -0.206 ± 0.11 |
| G51S | -0.014 ± 0.057 |
| G51K | 0.12 ± 0.11 |
| G51E | 0.016 ± 0.084 |
| G51A | -0.019 ± 0.065 |
| G51T | -0.065 ± 0.079 |
| G51I | -0.176 ± 0.1 |
| G51L | -0.159 ± 0.071 |
| G51C | -0.142 ± 0.091 |
| G51Q | -0.043 ± 0.11 |
| G51P | -0.194 ± 0.088 |
| G51R | 0 ± 0.06 |
| G51W | -0.064 ± 0.099 |
| G51F | -0.136 ± 0.094 |
| G51M | -0.106 ± 0.084 |
| V49W | -0.758 ± 0.11 |
| V49R | -0.888 ± 0.085 |
| V49F | -0.721 ± 0.18 |
| V49S | -0.886 ± 0.094 |
| V49A | -0.219 ± 0.065 |
| V49P | -1.18 ± 0.14 |

| Variant | abundance fitness |
| --- | --- |
| V49H | -0.883 ± 0.14 |
| V49Q | -0.744 ± 0.16 |
| V49K | -1.02 ± 0.13 |
| V49C | -0.031 ± 0.1 |
| V49I | -0.069 ± 0.07 |
| V49E | -0.897 ± 0.11 |
| V49D | -0.877 ± 0.15 |
| V49L | -0.258 ± 0.067 |
| V49N | -0.938 ± 0.15 |
| I50N | -0.229 ± 0.096 |
| I50G | -0.113 ± 0.07 |
| I50T | -0.267 ± 0.089 |
| I50L | -0.06 ± 0.061 |
| I50V | 0.03 ± 0.066 |
| I50C | -0.228 ± 0.11 |
| I50D | -0.224 ± 0.096 |
| I50H | -0.146 ± 0.1 |
| I50Y | -0.006 ± 0.098 |
| I50W | -0.085 ± 0.078 |
| I50P | -0.632 ± 0.16 |
| I50E | 0.095 ± 0.095 |
| I50R | 0.096 ± 0.06 |
| I50A | 0.085 ± 0.081 |

Reference: the Human Domainome abundance scans (Beltran et al. 2025)
